Drawing on paper PMC3576267, this text covers Kd for one sequence.

One may read the pKd as the Kd on a negative log10 scale, so that one unit is a factor of ten.

pKd: −log10 of the molar value.

For series [1], the system named is GST-UtroUp (six zinc finger artificial transcription factor) (synthetic construct). The series is described as follows: EMSA. Conditions: 50 uM ZnCl2; 1-90 nM protein; mean of five experiments; EMSA: 20 mM Hepes pH 7.5, 0.5 mM DTT, 100 mM NaCl, 50 uM ZnCl2, 50 ug/ml BSA, 100 ng poly(dI-dC), 0.05% NP40, 5% glycerol; temperature not stated. (In general: A gel shift assay detects complexes by their altered migration in electrophoresis.)

Series [2] has as its system GST-Jazz (three zinc finger artificial transcription factor) (synthetic construct). The series is described as follows: EMSA. Conditions: 50 uM ZnCl2; 5-96 nM protein; at 12 nM shift weaker than GST-UtroUp (Fig. 2C); EMSA: 20 mM Hepes pH 7.5, 0.5 mM DTT, 100 mM NaCl, 50 uM ZnCl2, 50 ug/ml BSA, 100 ng poly(dI-dC), 0.05% NP40, 5% glycerol; temperature not stated.

As to “ATTAAGCCGGGCTGCTGCGGGCTGGGAGTATGATCC (double strand) [WT UtroUp (UtroUp-Jazz) DNA target]”, the pKd in series [1] was 8.46; in series [2], 7.49.
